T1: FcγRIIb (human, UniProt P31994 43-217)
T1 construct: extracellular domain; also called FcgRIIb; 2b
T1 sequence (looked up): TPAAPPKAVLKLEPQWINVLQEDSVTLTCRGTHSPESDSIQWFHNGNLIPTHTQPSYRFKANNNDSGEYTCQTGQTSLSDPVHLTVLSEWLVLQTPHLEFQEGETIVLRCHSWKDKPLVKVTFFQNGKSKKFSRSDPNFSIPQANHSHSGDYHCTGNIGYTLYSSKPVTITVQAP


How the values were obtained:
FcγRIa [1] = target: T2, FcγRIa (human, UniProt P12314 16-292); assay: SPR (Biacore), relative to GpH7-A5/GpH7-B3/GpL16-k0 = 100
T2 construct: extracellular domain; also called FcgRI; FcgRIa

FcγRIIb = target: T1, FcγRIIb; assay: as above
FcγRIa [2] = target: T2, FcγRIa; assay: SPR (Biacore); He/Con_1a (FcgRIa) divided by He/Con_2b (FcgRIIb)
Experimental: The heterodimerized antibodies He Abs in which one of the H chains was introduced with an alteration were assayed for their binding activities to each activating FcγR and inhibitory FcγR according to the method described in Example 4. […] The activating FcγRs in FIGS. 26, 27, 28, and 29 are FcγRIa, FcγRIIa (R), FcγRIIa (H), and FcγRIIIa, respectively.
Analysis of interaction between objective antibody and the FcγR was carried out using Biacore T100 (GE Healthcare). HBS-EP+ (GE Healthcare) was used as the running buffer, and the measurement temperature was set to 25° C. Chips produced by immobilizing the antigen peptide by the amine coupling method to a Series S Sencor Chip CM5 (GE Healthcare), or alternatively, chips produced by allowing preliminarily biotinylated antigen peptides to interact with and immobilize onto a Series S Sensor Chip SA (certified) (GE Healthcare) were used. Antibodies of interest were captured onto an antigen peptide-immobilized chip, and allowed to interact to each FcγR diluted with running buffer. To regenerate and repeatedly use the chip, the antibodies captured on the chip were washed off by reacting 10 mM glycine-HCl, pH 1.5.

T2 sequence (P12314 16-292): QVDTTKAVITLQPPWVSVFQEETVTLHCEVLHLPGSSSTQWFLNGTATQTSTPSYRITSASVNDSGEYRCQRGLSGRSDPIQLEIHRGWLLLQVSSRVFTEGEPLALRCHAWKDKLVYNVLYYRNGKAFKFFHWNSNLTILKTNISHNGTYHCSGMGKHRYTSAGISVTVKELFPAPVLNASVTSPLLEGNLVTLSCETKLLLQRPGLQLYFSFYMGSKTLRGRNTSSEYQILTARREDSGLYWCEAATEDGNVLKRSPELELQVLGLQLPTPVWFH

Binder	He/Con_1a (Ia binding) (FcγRIa [1])	He/Con_2b (IIb binding) (FcγRIIb)	Ia/IIb He_1a/2b (FcγRIa [2])
GpH7-A5/GpH7-B3 variant S298_10E/GpL16-k0 (antibody, human IgG1, kappa, heterodimerized IgG1, one H chain mutated; also called He Ab) heavy 1: not shown heavy 2: not shown light: DIVMTQSPLSLPVTPGEPASISCQASESLVHSNRNTYLHWYLQKPGQSPQLLIYKVSNRFSGVPDRFSGSGSGTDFTLKISRVEAEDVGVYYCSQNTHVPPTFGQGTKVEIERTVAAPSVFIFPPSDEQLKSGTASVVCLLNNFYPREAKVQWKVDNALQSGNSQESVTEQDSKDSTYSLSSTLTLSKADYEKHKVYACEVTHQGLSSPVTKSFNRGEC	108 relative (control = 100)	47.6 relative (control = 100)	2.28
GpH7-A5/GpH7-B3 variant S298_11K/GpL16-k0 (antibody, human IgG1, kappa, heterodimerized IgG1, one H chain mutated; also called He Ab) heavy 1: not shown heavy 2: not shown light: DIVMTQSPLSLPVTPGEPASISCQASESLVHSNRNTYLHWYLQKPGQSPQLLIYKVSNRFSGVPDRFSGSGSGTDFTLKISRVEAEDVGVYYCSQNTHVPPTFGQGTKVEIERTVAAPSVFIFPPSDEQLKSGTASVVCLLNNFYPREAKVQWKVDNALQSGNSQESVTEQDSKDSTYSLSSTLTLSKADYEKHKVYACEVTHQGLSSPVTKSFNRGEC	109 relative (control = 100)	61.3 relative (control = 100)	1.78
GpH7-A5/GpH7-B3 variant S324_11K/GpL16-k0 (antibody, human IgG1, kappa, heterodimerized IgG1, one H chain mutated; also called He Ab) heavy 1: not shown heavy 2: not shown light: DIVMTQSPLSLPVTPGEPASISCQASESLVHSNRNTYLHWYLQKPGQSPQLLIYKVSNRFSGVPDRFSGSGSGTDFTLKISRVEAEDVGVYYCSQNTHVPPTFGQGTKVEIERTVAAPSVFIFPPSDEQLKSGTASVVCLLNNFYPREAKVQWKVDNALQSGNSQESVTEQDSKDSTYSLSSTLTLSKADYEKHKVYACEVTHQGLSSPVTKSFNRGEC	102 relative (control = 100)	68.6 relative (control = 100)	1.49
GpH7-A5/GpH7-B3 variant S298_12R/GpL16-k0 (antibody, human IgG1, kappa, heterodimerized IgG1, one H chain mutated; also called He Ab) heavy 1: not shown heavy 2: not shown light: DIVMTQSPLSLPVTPGEPASISCQASESLVHSNRNTYLHWYLQKPGQSPQLLIYKVSNRFSGVPDRFSGSGSGTDFTLKISRVEAEDVGVYYCSQNTHVPPTFGQGTKVEIERTVAAPSVFIFPPSDEQLKSGTASVVCLLNNFYPREAKVQWKVDNALQSGNSQESVTEQDSKDSTYSLSSTLTLSKADYEKHKVYACEVTHQGLSSPVTKSFNRGEC	109 relative (control = 100)	57.8 relative (control = 100)	1.89
GpH7-A5/GpH7-B3 variant S298_18N/GpL16-k0 (antibody, human IgG1, kappa, heterodimerized IgG1, one H chain mutated; also called He Ab) heavy 1: not shown heavy 2: not shown light: DIVMTQSPLSLPVTPGEPASISCQASESLVHSNRNTYLHWYLQKPGQSPQLLIYKVSNRFSGVPDRFSGSGSGTDFTLKISRVEAEDVGVYYCSQNTHVPPTFGQGTKVEIERTVAAPSVFIFPPSDEQLKSGTASVVCLLNNFYPREAKVQWKVDNALQSGNSQESVTEQDSKDSTYSLSSTLTLSKADYEKHKVYACEVTHQGLSSPVTKSFNRGEC	108 relative (control = 100)	48.1 relative (control = 100)	2.25
GpH7-A5/GpH7-B3 variant S298_20W/GpL16-k0 (antibody, human IgG1, kappa, heterodimerized IgG1, one H chain mutated; also called He Ab) heavy 1: not shown heavy 2: not shown light: DIVMTQSPLSLPVTPGEPASISCQASESLVHSNRNTYLHWYLQKPGQSPQLLIYKVSNRFSGVPDRFSGSGSGTDFTLKISRVEAEDVGVYYCSQNTHVPPTFGQGTKVEIERTVAAPSVFIFPPSDEQLKSGTASVVCLLNNFYPREAKVQWKVDNALQSGNSQESVTEQDSKDSTYSLSSTLTLSKADYEKHKVYACEVTHQGLSSPVTKSFNRGEC	104 relative (control = 100)	41.1 relative (control = 100)	2.53
GpH7-A5/GpH7-B3 variant S324_10E/GpL16-k0 (antibody, human IgG1, kappa, heterodimerized IgG1, one H chain mutated; also called He Ab) heavy 1: not shown heavy 2: not shown light: DIVMTQSPLSLPVTPGEPASISCQASESLVHSNRNTYLHWYLQKPGQSPQLLIYKVSNRFSGVPDRFSGSGSGTDFTLKISRVEAEDVGVYYCSQNTHVPPTFGQGTKVEIERTVAAPSVFIFPPSDEQLKSGTASVVCLLNNFYPREAKVQWKVDNALQSGNSQESVTEQDSKDSTYSLSSTLTLSKADYEKHKVYACEVTHQGLSSPVTKSFNRGEC	105 relative (control = 100)	77.4 relative (control = 100)	1.35
GpH7-A5/GpH7-B3 variant S298_15Y/GpL16-k0 (antibody, human IgG1, kappa, heterodimerized IgG1, one H chain mutated; also called He Ab) heavy 1: not shown heavy 2: not shown light: DIVMTQSPLSLPVTPGEPASISCQASESLVHSNRNTYLHWYLQKPGQSPQLLIYKVSNRFSGVPDRFSGSGSGTDFTLKISRVEAEDVGVYYCSQNTHVPPTFGQGTKVEIERTVAAPSVFIFPPSDEQLKSGTASVVCLLNNFYPREAKVQWKVDNALQSGNSQESVTEQDSKDSTYSLSSTLTLSKADYEKHKVYACEVTHQGLSSPVTKSFNRGEC	107 relative (control = 100)	61.4 relative (control = 100)	1.75
GpH7-A5/GpH7-B3 variant S298_19Q/GpL16-k0 (antibody, human IgG1, kappa, heterodimerized IgG1, one H chain mutated; also called He Ab) heavy 1: not shown heavy 2: not shown light: DIVMTQSPLSLPVTPGEPASISCQASESLVHSNRNTYLHWYLQKPGQSPQLLIYKVSNRFSGVPDRFSGSGSGTDFTLKISRVEAEDVGVYYCSQNTHVPPTFGQGTKVEIERTVAAPSVFIFPPSDEQLKSGTASVVCLLNNFYPREAKVQWKVDNALQSGNSQESVTEQDSKDSTYSLSSTLTLSKADYEKHKVYACEVTHQGLSSPVTKSFNRGEC	109 relative (control = 100)	73.3 relative (control = 100)	1.49
GpH7-A5/GpH7-B3 variant S324_12R/GpL16-k0 (antibody, human IgG1, kappa, heterodimerized IgG1, one H chain mutated; also called He Ab) heavy 1: not shown heavy 2: not shown light: DIVMTQSPLSLPVTPGEPASISCQASESLVHSNRNTYLHWYLQKPGQSPQLLIYKVSNRFSGVPDRFSGSGSGTDFTLKISRVEAEDVGVYYCSQNTHVPPTFGQGTKVEIERTVAAPSVFIFPPSDEQLKSGTASVVCLLNNFYPREAKVQWKVDNALQSGNSQESVTEQDSKDSTYSLSSTLTLSKADYEKHKVYACEVTHQGLSSPVTKSFNRGEC	102 relative (control = 100)	63.1 relative (control = 100)	1.61
GpH7-A5/GpH7-B3 variant S298_14T/GpL16-k0 (antibody, human IgG1, kappa, heterodimerized IgG1, one H chain mutated; also called He Ab) heavy 1: not shown heavy 2: not shown light: DIVMTQSPLSLPVTPGEPASISCQASESLVHSNRNTYLHWYLQKPGQSPQLLIYKVSNRFSGVPDRFSGSGSGTDFTLKISRVEAEDVGVYYCSQNTHVPPTFGQGTKVEIERTVAAPSVFIFPPSDEQLKSGTASVVCLLNNFYPREAKVQWKVDNALQSGNSQESVTEQDSKDSTYSLSSTLTLSKADYEKHKVYACEVTHQGLSSPVTKSFNRGEC	107 relative (control = 100)	77.9 relative (control = 100)	1.37
GpH7-A5/GpH7-B3 variant S324_01G/GpL16-k0 (antibody, human IgG1, kappa, heterodimerized IgG1, one H chain mutated; also called He Ab) heavy 1: not shown heavy 2: not shown light: DIVMTQSPLSLPVTPGEPASISCQASESLVHSNRNTYLHWYLQKPGQSPQLLIYKVSNRFSGVPDRFSGSGSGTDFTLKISRVEAEDVGVYYCSQNTHVPPTFGQGTKVEIERTVAAPSVFIFPPSDEQLKSGTASVVCLLNNFYPREAKVQWKVDNALQSGNSQESVTEQDSKDSTYSLSSTLTLSKADYEKHKVYACEVTHQGLSSPVTKSFNRGEC	98.8 relative (control = 100)	81.1 relative (control = 100)	1.22
GpH7-A5/GpH7-B3 variant S324_09D/GpL16-k0 (antibody, human IgG1, kappa, heterodimerized IgG1, one H chain mutated; also called He Ab) heavy 1: not shown heavy 2: not shown light: DIVMTQSPLSLPVTPGEPASISCQASESLVHSNRNTYLHWYLQKPGQSPQLLIYKVSNRFSGVPDRFSGSGSGTDFTLKISRVEAEDVGVYYCSQNTHVPPTFGQGTKVEIERTVAAPSVFIFPPSDEQLKSGTASVVCLLNNFYPREAKVQWKVDNALQSGNSQESVTEQDSKDSTYSLSSTLTLSKADYEKHKVYACEVTHQGLSSPVTKSFNRGEC	104 relative (control = 100)	85.8 relative (control = 100)	1.21
GpH7-A5/GpH7-B3 variant S324_02A/GpL16-k0 (antibody, human IgG1, kappa, heterodimerized IgG1, one H chain mutated; also called He Ab) heavy 1: not shown heavy 2: not shown light: DIVMTQSPLSLPVTPGEPASISCQASESLVHSNRNTYLHWYLQKPGQSPQLLIYKVSNRFSGVPDRFSGSGSGTDFTLKISRVEAEDVGVYYCSQNTHVPPTFGQGTKVEIERTVAAPSVFIFPPSDEQLKSGTASVVCLLNNFYPREAKVQWKVDNALQSGNSQESVTEQDSKDSTYSLSSTLTLSKADYEKHKVYACEVTHQGLSSPVTKSFNRGEC	103 relative (control = 100)	78.3 relative (control = 100)	1.31
GpH7-A5/GpH7-B3 variant S298_16H/GpL16-k0 (antibody, human IgG1, kappa, heterodimerized IgG1, one H chain mutated; also called He Ab) heavy 1: not shown heavy 2: not shown light: DIVMTQSPLSLPVTPGEPASISCQASESLVHSNRNTYLHWYLQKPGQSPQLLIYKVSNRFSGVPDRFSGSGSGTDFTLKISRVEAEDVGVYYCSQNTHVPPTFGQGTKVEIERTVAAPSVFIFPPSDEQLKSGTASVVCLLNNFYPREAKVQWKVDNALQSGNSQESVTEQDSKDSTYSLSSTLTLSKADYEKHKVYACEVTHQGLSSPVTKSFNRGEC	109 relative (control = 100)	63.5 relative (control = 100)	1.71
GpH7-A5/GpH7-B3 variant S324_14T/GpL16-k0 (antibody, human IgG1, kappa, heterodimerized IgG1, one H chain mutated; also called He Ab) heavy 1: not shown heavy 2: not shown light: DIVMTQSPLSLPVTPGEPASISCQASESLVHSNRNTYLHWYLQKPGQSPQLLIYKVSNRFSGVPDRFSGSGSGTDFTLKISRVEAEDVGVYYCSQNTHVPPTFGQGTKVEIERTVAAPSVFIFPPSDEQLKSGTASVVCLLNNFYPREAKVQWKVDNALQSGNSQESVTEQDSKDSTYSLSSTLTLSKADYEKHKVYACEVTHQGLSSPVTKSFNRGEC	121 relative (control = 100)	88.4 relative (control = 100)	1.37

Source: US20180155451A1 (published 2018)
